# Experimental data reported in IntAct's records for PubMed 29892012.
# B1: Alpha-ketoglutarate-dependent dioxygenase alkB homolog 3 (Homo sapiens), Q96Q83 (parent)
# chain: MEEKRRRARVQGAWAAPVKSQAIAQPATTAKSHLHQKPGQTWKNKEHHLSDREFVFKEPQQVVRRAPEPRVIDREGVYEISLSPTGVSRVCLYPGFVDVKEADWILEQLCQDVPWKQRTGIREDITYQQPRLTAWYGELPYTYSRITMEPNPHWHPVLRTLKNRIEENTGHTFNSLLCNLYRNEKDSVDWHSDDEPSLGRCPIIASLSFGATRTFEMRKKPPPEENGDYTYVERVKIPLDHGTLLIMEGATQADWQHRVPKEYHSREPRVNLTFRTVYPDPRGAPW
# B2: Protein VAC14 homolog (Homo sapiens), Q08AM6 (parent)
# chain: MNPEKDFAPLTPNIVRALNDKLYEKRKVAALEIEKLVREFVAQNNTVQIKHVIQTLSQEFALSQHPHSRKGGLIGLAACSIALGKDSGLYLKELIEPVLTCFNDADSRLRYYACEALYNIVKVARGAVLPHFNVLFDGLSKLAADPDPNVKSGSELLDRLLKDIVTESNKFDLVSFIPLLRERIYSNNQYARQFIISWILVLESVPDINLLDYLPEILDGLFQILGDNGKEIRKMCEVVLGEFLKEIKKNPSSVKFAEMANILVIHCQTTDDLIQLTAMCWMREFIQLAGRVMLPYSSGILTAVLPCLAYDDRKKSIKEVANVCNQSLMKLVTPEDDELDELRPGQRQAEPTPDDALPKQEGTASGGPDGSCDSSFSSGISVFTAASTERAPVTLHLDGIVQVLNCHLSDTAIGMMTRIAVLKWLYHLYIKTPRKMFRHTDSLFPILLQTLSDESDEVILKDLEVLAEIASSPAGQTDDPGPLDGPDLQASHSELQVPTPGRAGLLNTSGTKGLECSPSTPTMNSYFYKFMINLLKRFSSERKLLEVRGPFIIRQLCLLLNAENIFHSMADILLREEDLKFASTMVHALNTILLTSTELFQLRNQLKDLKTLESQNLFCCLYRSWCHNPVTTVSLCFLTQNYRHAYDLIQKFGDLEVTVDFLAEVDKLVQLIECPIFTYLRLQLLDVKNNPYLIKALYGLLMLLPQSSAFQLLSHRLQCVPNPELLQTEDSLKAAPKSQKADSPSIDYAELLQHFEKVQNKHLEVRHQRSGRGDHLDRRVVL
# partner: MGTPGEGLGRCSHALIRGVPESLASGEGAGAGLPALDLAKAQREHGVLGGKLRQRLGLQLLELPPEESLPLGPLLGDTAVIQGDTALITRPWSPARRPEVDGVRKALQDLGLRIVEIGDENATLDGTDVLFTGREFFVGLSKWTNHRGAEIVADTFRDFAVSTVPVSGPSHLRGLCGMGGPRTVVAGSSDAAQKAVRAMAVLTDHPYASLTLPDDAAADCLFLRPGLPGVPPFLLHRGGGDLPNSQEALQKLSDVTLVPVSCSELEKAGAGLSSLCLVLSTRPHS
# B3: Cell division cycle-associated 7-like protein (Homo sapiens), Q96GN5 (parent)
# chain: MELATRYQIPKEVADIFNAPSDDEEFVGFRDDVPMETLSSEESCDSFDSLESGKQQDVRFHSKYFTEELRRIFIEDTDSETEDFAGFTQSDLNGKTNPEVMVVESDLSDDGKASLVSEEEEDEEEDKATPRRSRSRRSSIGLRVAFQFPTKKLANKPDKNSSSEQLFSSARLQNEKKTILERKKDCRQVIQREDSTSESEDDSRDESQESSDALLKRTMNIKENKAMLAQLLAELNSMPDFFPVRTPTSASRKKTVRRAFSEGQITRRMNPTRSARPPEKFALENFTVSAAKFAEEFYSFRRRKTIGGKCREYRRRHRISSFRPVEDITEEDLENVAITVRDKIYDKVLGNTCHQCRQKTIDTKTVCRNQGCCGVRGQFCGPCLRNRYGEDVRSALLDPDWVCPPCRGICNCSYCRKRDGRCATGILIHLAKFYGYDNVKEYLESLQKELVEDN
# partner: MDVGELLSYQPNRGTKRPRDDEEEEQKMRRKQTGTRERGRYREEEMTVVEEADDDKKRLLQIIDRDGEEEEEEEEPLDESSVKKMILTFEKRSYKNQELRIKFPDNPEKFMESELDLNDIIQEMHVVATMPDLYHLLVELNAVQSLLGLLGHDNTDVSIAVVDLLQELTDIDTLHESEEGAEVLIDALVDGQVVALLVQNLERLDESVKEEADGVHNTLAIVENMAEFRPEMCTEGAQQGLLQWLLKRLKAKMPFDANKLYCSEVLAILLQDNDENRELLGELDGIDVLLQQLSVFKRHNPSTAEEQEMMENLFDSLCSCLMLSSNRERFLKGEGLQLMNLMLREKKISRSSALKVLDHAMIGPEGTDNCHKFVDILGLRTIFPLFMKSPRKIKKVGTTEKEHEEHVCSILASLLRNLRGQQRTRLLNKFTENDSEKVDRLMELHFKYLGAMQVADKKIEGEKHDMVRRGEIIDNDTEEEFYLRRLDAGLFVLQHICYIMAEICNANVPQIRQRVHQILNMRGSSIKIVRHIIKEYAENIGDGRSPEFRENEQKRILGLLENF
# B4: Ligand of Numb protein X 2 (Homo sapiens), Q8N448 (parent)
# chain: MGTTSDEMVSVEQTSSSSLNPLCFECGQQHWTRENHLYNYQNEVDDDLVCHICLQPLLQPLDTPCGHTFCYKCLRNFLQEKDFCPLDRKRLHFKLCKKSSILVHKLLDKLLVLCPFSSVCKDVMQRCDLEAHLKNRCPGASHRRVALERRKTSRTQAEIENENGPTLLDPAGTLSPEADCLGTGAVPVERHLTSASLSTWSEEPGLDNPAFEESAGADTTQQPLSLPEGEITTIEIHRSNPYIQLGISIVGGNETPLINIVIQEVYRDGVIARDGRLLAGDQILQVNNYNISNVSHNYARAVLSQPCNTLHLTVLRERRFGNRAHNHSDSNSPREEIFQVALHKRDSGEQLGIKLVRRTDEPGVFILDLLEGGLAAQDGRLSSNDRVLAINGHDLKYGTPELAAQIIQASGERVNLTIARPGKPQPGNTIREAGNHSSSSQHHTPPPYYSRPSSHKDLTQCVTCQEKHITVKKEPHESLGMTVAGGRGSKSGELPIFVTSVPPHGCLARDGRIKRGDVLLNINGIDLTNLSHSEAVAMLKASAASPAVALKALEVQIVEEATQNAEEQPSTFSENEYDASWSPSWVMWLGLPSTLHSCHDIVLRRSYLGSWGFSIVGGYEENHTNQPFFIKTIVLGTPAYYDGRLKCGDMIVAVNGLSTVGMSHSALVPMLKEQRNKVTLTVICWPGSLV
# partner: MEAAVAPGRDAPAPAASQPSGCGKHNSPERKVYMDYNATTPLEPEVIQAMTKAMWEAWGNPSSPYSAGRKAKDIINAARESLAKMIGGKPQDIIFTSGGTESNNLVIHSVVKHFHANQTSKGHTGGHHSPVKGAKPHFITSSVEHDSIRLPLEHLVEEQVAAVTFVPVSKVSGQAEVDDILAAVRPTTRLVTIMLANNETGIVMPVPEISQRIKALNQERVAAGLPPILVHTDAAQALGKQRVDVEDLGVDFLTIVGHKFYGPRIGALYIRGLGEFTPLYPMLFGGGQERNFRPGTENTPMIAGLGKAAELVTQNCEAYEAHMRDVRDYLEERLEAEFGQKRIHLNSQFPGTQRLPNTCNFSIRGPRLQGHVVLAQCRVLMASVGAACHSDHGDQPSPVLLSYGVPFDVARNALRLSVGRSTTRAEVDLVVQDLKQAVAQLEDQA
# B5: Zyxin (Homo sapiens), Q15942 (parent)
# chain: MAAPRPSPAISVSVSAPAFYAPQKKFGPVVAPKPKVNPFRPGDSEPPPAPGAQRAQMGRVGEIPPPPPEDFPLPPPPLAGDGDDAEGALGGAFPPPPPPIEESFPPAPLEEEIFPSPPPPPEEEGGPEAPIPPPPQPREKVSSIDLEIDSLSSLLDDMTKNDPFKARVSSGYVPPPVATPFSSKSSTKPAAGGTAPLPPWKSPSSSQPLPQVPAPAQSQTQFHVQPQPQPKPQVQLHVQSQTQPVSLANTQPRGPPASSPAPAPKFSPVTPKFTPVASKFSPGAPGGSGSQPNQKLGHPEALSAGTGSPQPPSFTYAQQREKPRVQEKQHPVPPPAQNQNQVRSPGAPGPLTLKEVEELEQLTQQLMQDMEHPQRQNVAVNELCGRCHQPLARAQPAVRALGQLFHIACFTCHQCAQQLQGQQFYSLEGAPYCEGCYTDTLEKCNTCGEPITDRMLRATGKAYHPHCFTCVVCARPLEGTSFIVDQANRPHCVPDYHKQYAPRCSVCSEPIMPEPGRDETVRVVALDKNFHMKCYKCEDCGKPLSIEADDNGCFPLDGHVLCRKCHTARAQT
# partner: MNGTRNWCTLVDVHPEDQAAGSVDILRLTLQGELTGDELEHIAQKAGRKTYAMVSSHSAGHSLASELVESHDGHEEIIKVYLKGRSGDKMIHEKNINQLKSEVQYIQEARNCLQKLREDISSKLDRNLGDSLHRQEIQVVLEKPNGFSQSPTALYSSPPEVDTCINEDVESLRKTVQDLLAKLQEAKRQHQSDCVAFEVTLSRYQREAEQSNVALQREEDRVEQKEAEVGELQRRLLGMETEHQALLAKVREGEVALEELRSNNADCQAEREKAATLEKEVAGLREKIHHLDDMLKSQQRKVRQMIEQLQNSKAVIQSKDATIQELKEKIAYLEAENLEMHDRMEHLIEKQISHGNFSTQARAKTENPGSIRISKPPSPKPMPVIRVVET
# Variants of: B1
# Settings: with ikzf1_human IKZF1, Q13422
# ikzf1_human IKZF1, Q13422, sequence (Q13422 whole entry): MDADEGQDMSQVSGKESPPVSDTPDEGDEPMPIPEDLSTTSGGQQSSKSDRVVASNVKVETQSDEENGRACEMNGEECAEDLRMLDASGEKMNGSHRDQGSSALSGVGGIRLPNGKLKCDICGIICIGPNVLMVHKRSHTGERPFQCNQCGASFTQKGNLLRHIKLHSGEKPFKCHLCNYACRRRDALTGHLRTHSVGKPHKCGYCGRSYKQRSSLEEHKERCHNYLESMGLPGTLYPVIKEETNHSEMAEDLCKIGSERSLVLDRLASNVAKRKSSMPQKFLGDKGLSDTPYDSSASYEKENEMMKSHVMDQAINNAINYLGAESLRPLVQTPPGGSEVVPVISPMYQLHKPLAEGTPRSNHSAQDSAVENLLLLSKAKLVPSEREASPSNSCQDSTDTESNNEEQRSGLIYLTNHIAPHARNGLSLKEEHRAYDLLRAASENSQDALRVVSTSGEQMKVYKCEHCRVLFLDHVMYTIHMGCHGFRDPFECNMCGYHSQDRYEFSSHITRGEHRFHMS
row,effect of a mutation on the interaction,Variant
1,with no effect,R64H

# Variants of: B2
# Settings: with ddah2_human DDAH2, O95865
row,effect of a mutation on the interaction,Variant
1,with no effect,A127S

# Variants of: B3
# Settings: with ctbl1_human CTNNBL1, Q8WYA6
row,effect of a mutation on the interaction,Variant
1,with no effect,R268H

# Variants of: B4
# Settings: with scly_human SCLY
row,effect of a mutation on the interaction,Variant
1,with no effect,P669A

# Variants of: B5
# Settings: with tuft1_human TUFT1, Q9NNX1
row,effect of a mutation on the interaction,Variant
1,with no effect,R167G
